Like-named read-outs stand apart in the source and are kept apart here. Each block holds one binder with its values, some of them ahead of it.
Legend:
[1] = target: T1, cynomolgus CD20 on transiently transfected HEK 293 cells (cynomolgus, UniProt M4ZHZ6 1-297); assay: FACS binding; 293F-cynoCD20 cells
T1 chain: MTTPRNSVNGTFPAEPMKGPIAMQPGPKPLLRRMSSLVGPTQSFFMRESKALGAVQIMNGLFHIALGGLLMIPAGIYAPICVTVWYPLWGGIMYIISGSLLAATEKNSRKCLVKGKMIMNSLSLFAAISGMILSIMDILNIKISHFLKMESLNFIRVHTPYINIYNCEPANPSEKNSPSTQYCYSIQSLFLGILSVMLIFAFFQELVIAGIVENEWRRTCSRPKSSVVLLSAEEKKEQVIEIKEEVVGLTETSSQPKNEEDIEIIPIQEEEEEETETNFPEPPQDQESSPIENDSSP

[2] = target: T2, CD20 on the cell surface of Raji cells (human, UniProt P11836 1-297); assay: FACS binding; Raji cells
T2 chain: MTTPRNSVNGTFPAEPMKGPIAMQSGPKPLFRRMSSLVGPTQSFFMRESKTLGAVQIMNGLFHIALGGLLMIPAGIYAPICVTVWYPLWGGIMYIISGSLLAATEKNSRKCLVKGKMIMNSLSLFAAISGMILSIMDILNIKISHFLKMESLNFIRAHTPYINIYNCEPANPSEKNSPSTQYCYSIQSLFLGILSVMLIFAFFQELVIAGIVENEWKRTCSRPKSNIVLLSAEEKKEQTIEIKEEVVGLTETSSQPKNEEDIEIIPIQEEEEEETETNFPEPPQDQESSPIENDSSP

[3] = target: T3, cynomolgus CD3 on primary cynomolgus T cells (UniProt Q95LI5 22-198); assay: FACS binding; cyno T cells
T3 epsilon: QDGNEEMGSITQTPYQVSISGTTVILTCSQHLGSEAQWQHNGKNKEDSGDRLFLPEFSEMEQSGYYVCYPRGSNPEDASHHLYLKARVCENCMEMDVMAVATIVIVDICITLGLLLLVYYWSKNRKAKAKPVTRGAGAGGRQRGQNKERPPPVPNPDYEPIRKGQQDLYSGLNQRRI

[4] = target: CD3 on the cell surface of Jurkat cells (human, UniProt P07766 23-207; P04234 22-171; P09693 23-182); assay: FACS binding; Jurkat cells
[5] = target: T1, cynomolgus CD20 on transiently …; assay: FACS
[6] = target: T3, cynomolgus CD3 on primary cynomolgus T …; assay: FACS
[7] = target: T2, CD20 on the cell surface of Raji cells; assay: FACS binding; Raji cells

EC50 [1]: 14.3 nM
EC50 [2]: 16.8 nM
EC50 [3]: 3.85 nM
B1: FIT018a CD20 (Ofatumumab)/CD3 mAb (bispecific antibody)
chain 1: not shown
chain 2: EVQLVESGGGLVQPGRSLRLSCAASGFTFNDYAMHWVRQAPGKGLEWVSTISWNSGSIGYADSVKGRFTISRDNAKKSLYLQMNSLRAEDTALYYCAKDIQYGNYYYGMDVWGQGTTVTVSSASTKGPSVFPLAPSSKSTSGGTAALGCLVKDYFPEPVTVSWNSGALTSGVHTFPAVLQSSGLYSLSSVVTVPSSSLGTQTYICNVNHKPSNTKVDKKVEPKSC
chain 3: ELVVTQEPSLTVSPGGTVTLTCRSSTGAVTTSNYANWVQQKPGQAPRGLIGGTNKRAPGTPARFSGSLLGGKAALTLSGVQPEDEAEYYCALWYSNLWVFGGGTKLTVLGQPKAAPSVTLFPPSSEELQANKATLVCLISDFYPGAVTVAWKADSSPVKAGVETTTPSKQSNNKYAASSYLSLTPEQWKSHRSYSCQVTHEGSTVEKTVAPTECS

EC50 [4]: 0.848 nM
EC50 [2]: ~8160 nM
EC50 [3]: 1.15 nM
B2: CD3 mAb (described in US2009/0252683) (antibody, V domains shown)
VH: EVQLLESGGGLVQPGGSLKLSCAASGFTFNTYAMNWVRQAPGKGLEWVARIRSKYNNYATYYADSVKDRFTISRDDSKNTAYLQMNNLKTEDTAVYYCVRHGNFGNSYVSWFAYWGQGTLVTVSS
VL: ELVVTQEPSLTVSPGGTVTLTCRSSTGAVTTSNYANWVQQKPGQAPRGLIGGTNKRAPGTPARFSGSLLGGKAALTLSGVQPEDEAEYYCALWYSNLWVFGGGTKLTVL

EC50 [5]: 3.07 nM
EC50 [6]: 490 nM
B3: anti-CD20 (Ofatumumab) (antibody, V domains shown)
VH: EVQLVESGGGLVQPGRSLRLSCAASGFTFNDYAMHWVRQAPGKGLEWVSTISWNSGSIGYADSVKGRFTISRDNAKKSLYLQMNSLRAEDTALYYCAKDIQYGNYYYGMDVWGQGTTVTVSS
VL: EIVLTQSPATLSLSPGERATLSCRASQSVSSYLAWYQQKPGQAPRLLIYDASNRATGIPARFSGSGSGTDFTLTISSLEPEDFAVYYCQQRSNWPITFGQGTRLEIK

EC50 [7]: 7.66 nM
B4: FIT021b (antibody)
chain 1: not shown
chain 2: MEFGLSWLFLVAILKGVQCEVQLVESGGGLVQPGRSLRLSCAASGFTFNDYAMHWVRQAPGKGLEWVSTISWNSGSIGYADSVKGRFTISRDNAKKSLYLQMNSLRAEDTALYYCAKDIQYGNYYYGMDVWGQGTTVTVSSASTKGPSVFPLAPSSKSTSGGTAALGCLVKDYFPEPVTVSWNSGALTSGVHTFPAVLQSSGLYSLSSVVTVPSSSLGTQTYICNVNHKPSNTKVDKKVEPKSC
chain 3: MDMRVPAQLLGLLLLWFPGSRCDIQLTQSPSSLSASVGDRVTMSCKSSQSVLYSANHKNYLAWYQQKPGKAPKLLIYWASTRESGVPSRFSGSGSGTDFTFTISSLQPEDIATYYCHQYLSSWTFGGGTKLEIKRTVAAPSVFIFPPSDEQLKSGTASVVCLLNNFYPREAKVQWKVDNALQSGNSQESVTEQDSKDSTYSLSSTLTLSKADYEKHKVYACEVTHQGLSSPVTKSFNRGEC

Reference: US20190233517A1 (published 2019)
